Results published in patent US7115576B2, “Water-soluble antibiotic comprising an amino sugar, in the form of a polysaccharide conjugate” (Fresenius Kabi Deutschland GmbH, priority 2001, dated 2006).

What was measured:
[1] = Water solubility; assay type: physicochemical
[2] = test system: erythrocytes; assay: Haemolysis comparison test (extinction of supernatant at 576 nm); assay type: cell-based, human; conditions: 37°C, 20 min
Protocol: Of this stock solution, three dilutions were produced in accordance with Table 2 and their haemolytic action also investigated.
Production of the erythrocyte suspension: freshly taken human blood was diluted with approximately 5 times the volume of sterile 0.9% NaCl solution (batch designation: 9055A64 produced by the company Braun Melsungen) and centrifuged for 5 minutes at a relative centrifugal acceleration of 2000. The supernatant solution was then drawn off and the sedimented erythrocytes treated twice more in the same way.
The erythrocytes thus washed were counted in a Neubauer counting chamber and—where necessary—diluted again with sterile 0.9% NaCl solution to a final concentration of approx. 5·10^8 erythrocytes per ml. This suspension is according to DIN standard usable at room temperature for up to 6 hours.
Haemolysis comparison test: 5 ml of the solution to be tested was mixed with 1 ml of the above erythrocyte suspension, transferred to a cleaned centrifuge tube and incubated in a water bath at 37±1° C. for 20 minutes. Centrifuging was then performed for 5 minutes at a relative centrifugal acceleration of 2000.
The extinction of the supernatant liquid was measured. 5 ml of the 0.9% NaCl solution and the 5% glucose solution, which were mixed with 1 ml of the erythrocyte suspension, also incubated at 37±1° C. for 20 minutes and then centrifuged as above, served as negative controls.
For the test for haemolysis, the extinctions of the respective supernatants were measured in a photometer against the negative controls at a wavelength of 576 nm using a cuvette 10 mm in thickness. Owing to the differing stainings of the solutions, the extinction was also measured for the purpose of comparing the solutions without erythrocyte suspension.

## C[C@@H]1[C@H](O)[C@@H](C)/C=C/C=C/C=C/C=C/C=C/C=C/C=C/[C@H](O[C@@H]2O[C@H](C)[C@@H](O)[C@H](N)[C@@H]2O)C[C@@H]2O[C@](O)(C[C@@H](O)C[C@@H](O)[C@H](O)CC[C@@H](O)C[C@@H](O)CC(=O)O[C@H]1C)C[C@H](O)[C@H]2C(=O)O [Amphotericin B, reference compound]
[1]
  water solubility: virtually insoluble in water

## Amphotericin B-HES Conjugate [Ampho HES]
[1]
  water solubility: > 0.1 g/5 ml H2O
[2]; amphotericin B 0.1 mg/ml in the test batch (0.12 mg/ml in the solution)
  Extinction 576 nm: 0.027
[2]; amphotericin B 0.2 mg/ml in the test batch (0.24 mg/ml in the solution)
  Extinction 576 nm: 0.061
[2]; amphotericin B 0.4 mg/ml in the test batch (0.48 mg/ml in the solution)
  Extinction 576 nm: 0.274*)
[2]; amphotericin B 0.83 mg/ml in the test batch (1.00 mg/ml stock solution)
  Extinction 576 nm: 2.452*)**)
